Where no end group is shown, it is not given here. [ ]: non-standard residue; d: D form.
How the values were obtained:
[1] = cited from earlier work
[2] = Temperature dependent CD: temperature at which folding and self-assembly is triggered (Tgel); type: physicochemical; details: for temperature at which folding and consequent self-assembly is triggered (Tgel): 150 μM peptide, 125 mM Borate, 10 mM NaCl, pH 9, CD ellipticity at 218 nm
Source text: At low temperature MAX1 is unfolded (and unassembled). At high temperature MAX1 folds into beta-sheet (and consequently self-assembles into a hydrogel). […] The relative hydrophobicity is MAX1>MAX2>MAX3 due to the isostructural but less hydrophobic substitutions of threonine for valine at the underlined positions. The most hydrophobic folds at the lowest temperature while the least hydrophobic folds at the highest temperature. This is a direct manifestations of the molecular parameter manipulations described in FIG. 2. Also shown are the calculated free energy of transfer of each corresponding unfolded peptide having an overall +8 charge state from octanol into water at 25° C. MAX1, the most hydrophobic has the highest free energy of transfer equal to 7.60 kcal/mol. MAX2 has a calculated transfer free energy of 6.88 kcal/mol, while the least hydrophobic MAX3 has the lowest energy of transfer of 6.45 kcal/mol.
This allows the characteristics of the hydrogels of the invention to be varied by adjusting these parameters. […] It is well known that water is better able to solvate hydrophobic groups at low temperatures. This phenomenon has been used to describe the cold denaturation of proteins where some proteins unfold at low temperatures, exposing their hydrophobic interiors to aqueous solvent. A 150 μM aqueous solution of MAX1 unfolds when cooled below room temperature. The CD spectrum at 5° C. is consistent with random coil conformation, FIG. 9A. However, warming the solution to 40° C. results in a spectra consistent with β-sheet structure. […] In fact, previous studies involving the pH induced folding and self-assembly of MAX1 were performed at 20° C. At this temperature, folding and self-assembly are slow enough to be conveniently monitored. At higher temperatures, folding and self: assembly leading to hydrogelation is fast (instantaneous to seconds depending on concentration). If the formation of hydrophobic interactions affects the folding and self-assembly process, then altering the hydrophobic content of MAX1 should affect the temperature at which folding is triggered. […] MAX2 is identical to MAX1 except that one valine residue has been replaced with the isostructural, but less hydrophobic residue, threonine. In MAX3, two valines are replaced with threonine residues. The resulting peptides vary in their hydrophobicity as evident by comparing calculated free energies of transfer from octanol into water, FIG. 9. […] Thus, the formation of hydrophobic contacts influences folding and self-assembly. […] Thus, the characteristics of the hydrogels of the invention can be varied by adjusting the amino acid residues of the peptides used to form the hydrogels to increase or decrease the hydrophobicity of the amino acid residues used.
There are reports of large polymers that are thermally responsive. The present invention provides the first system that employs temperature triggered folding to induce self-assembly. […] Heating the solution to 80° C. results in a spectra consistent with β-sheet structure. […] The temperatures used in both CD and rheology bracket the temperature (Tgel=60° C., FIG. 9) at which folding and consequent self-assembly is triggered. […] For example, free flowing peptide solutions could be prepared at room temperature and administered in vivo where the temperature of the body could induce gelation. […]

[3] = Hydrogelation by folding and self-assembly; type: physicochemical; details: for reversibility of thermally induced hydrogelation: pH 9, heating/cooling cycles
Protocol: The ability of MAX1 to undergo hydrogelation is dependent upon its unimolecular folded state. Under basic aqueous solution conditions (pH 9.0, 125 mM Borate, 10 mM NaCl), where some of the lysine side chains of MAX1 are neutral, this peptide intramolecularly folds into an amphiphilic β-hairpin (folding can also be triggered at pH 7 under physiological conditions). One face of the hairpin is lined with hydrophobic valine residues while the other face is lined with hydrophilic lysine residues, FIGS. 2 and 3A. After intramolecular folding, subsequent self-assembly of hairpins is facilitated (a) laterally via H-bond formation and attractive hydrophobic interactions between distinct hairpins as well as (b) facially by hydrophobic association of the valine-rich faces of the folded peptide resulting in hydrogelation, FIG. 3B. Since the charged state of the lysine residues are controlled by pH, the unimolecular folding is reversible. Lowering the pH below the intrinsic pKa of the lysine side chains results in intra-strand charge repulsion from neighboring lysines and subsequent unfolding of individual hairpins, ultimately dissolving the self-assembled hydrogel structure. This reversible behavior is unique when compared to β-sheet-rich hydrogels prepared from classical fibril-based designs. In these systems, the self-assembly process is irreversible.
There are reports of large polymers that are thermally responsive. The present invention provides the first system that employs temperature triggered folding to induce self-assembly. […] Heating the solution to 80° C. results in a spectra consistent with β-sheet structure. […] The temperatures used in both CD and rheology bracket the temperature (Tgel=60° C., FIG. 9) at which folding and consequent self-assembly is triggered. […] For example, free flowing peptide solutions could be prepared at room temperature and administered in vivo where the temperature of the body could induce gelation. Some Poly-N-isopropylacrylamide polymers have been engineered have been engineered to undergo such transitions ultimately affording extracellular-like scaffolds for tissue regeneration. The above studies support the idea that the formation of hydrophobic interactions are important. MAX1-3 all contain valines and threonines at hydrogen bonded positions. At these positions, their side chains prefer to adopt a trans rotamer. As a result, hydrophobic residues that oppose each other across the hairpin point their side chains in opposite directions thus making the formation of intramolecular hydrophobic interactions across the strands difficult, FIG. 11A. However, these side chains are nicely positioned to interact laterally with the hydrophobic side chains of neighboring hairpins in the self-assembled state, FIG. 11B. Forming these lateral hydrophobic interactions should favor self-assembly. […] In MAX4, opposing valine side chains are expected to point towards each other, FIG. 11B. Thus, the valine side chains of MAX4 are less likely than those in MAX1 to form lateral intermolecular hydrophobic interactions. If the formation of lateral intermolecular hydrophobic interactions is of more importance for self-assembly than intramolecular hydrophobic contacts, then the rate of self-assembly should be faster for MAX1 than for MAX4. This difference in rate should be evident in the rate of storage moduli (rigidity) increase. […] (Tgel=20° C. for both peptides). […]

[4] = CD spectroscopy of peptide folding (random coil vs β-sheet); type: physicochemical; details: 150 μM solution, pH 9.0, 125 mM Borate, 10 mM NaCl
Protocol: Time-dependent circular dichroism (CD) studies support a hydrogelation mechanism consistent with intramolecular hairpin formation followed by self-assembly. […] At temperatures >25° C. the folding and self-assembly of MAX1 occurs on the order of seconds. […] This behavior is consistent across all spectro- and microscopic methods used to interrogate MAX1. For example, at micromolar concentrations used for the CD studies shown in FIGS. 4A and 4B, self-assembly takes hours at 20° C. At millimolar concentrations, such as those used in the rheological studies described below, self-assembly leading to hydrogel takes minutes at 20° C.
The reversibility of the folding and self-assembly process was investigated by measuring θ216 as a function of pH and time as shown in FIG. 4C. CD of a stirred solution of MAX1 at pH 5.5 indicates random coil conformation. Adjusting the pH to 9.0 by the addition of NaOH results in β-sheet formation as expected. However, subsequent adjustment of the pH to 6.0 results in complete loss of sheet signal and full recovery of random coil signal. […] Again, this reversible behavior is not observed in hydrogels formed from amyloid/prion-like fibrils.
In some embodiments of the invention, various functionalities (e.g., cell adhesion epitopes, receptor agonists, receptor antagonists, ligands, small molecules, etc) may be incorporated into the hairpin hydrogel scaffold. One way to accomplish this would be to functionalize one or more amino acid side chains of the peptide. […] In some embodiments, the moieties to be incorporated at a particular side chain may be much larger (e.g. RGD-based motifs) and may contain charged residues. MAX5 (VKVKVKVKV^DPPTKVKEKVKV-NH2) was prepared to investigate the possibility of incorporating a charged residue on the hydrophobic face of MAX1. The sequence contains a glutamic acid residue at position 16 which is negatively charged at basic pH where MAX1 normally folds and assembles. […] However, alterations to the hydrophilic face of MAX1 are well tolerated. Sequences in which one or two lysine residues are replaced with other residues such as cysteine, serine, and glutamic acid are capable of folding and self-assembly into rigid hydrogels (data not shown).
The peptides described above contain identical turn sequences, namely (-V^DPPT-). This sequence has a strong propensity to form a type II′ turn and therefore helps to drive intramolecular folding. Since intramolecular folding must occur prior to self-assembly, alterations to this turn sequence that inhibit turn structure formation can be used to modulate intramolecular folding and self-assembly leading to hydrogelation. MAX9 was prepared to probe the importance of the turn region (VKVKVKVKV^LPPTKVKVKVKV-NH2). […]

Molecule: NC(=O)CN1CCN(CC(N)=O)CCN(CC(N)=O)CCN(CC(N)=O)CC1 [DOTAM]
- Kd ([1]; read-out: Kd for calcium): 29 nM

Molecule: -DRKADGYIDFEE-
- Kd for Ca(II) ([1]; linear peptide): low mM

Molecule: KVKVKVKV K^DPPS VKVKVKVK-NH2 (chain 1 KVKVKVKVK[dP]PS; not fully specified) [MAX4]
- temperature at which folding and consequent self-assembly is triggered (Tgel) [2]: 20 °C

Molecule: VKVKVKTK V^DPPT KVKTKVKV-NH2 (not fully specified (C-terminus)) [MAX3]
- temperature at which folding and consequent self-assembly is triggered (Tgel) [2]: 60 °C
- reversibility of thermally induced hydrogelation [3]: thermally reversible

Molecule: VKVKVKVK VPPT KVKVKVKV-NH2 (VKVKVKVKVPPTKVKVKVKV-NH2) [MAX9]
- conformation by CD under folding conditions [4]: only random coil
- hydrogelation under folding conditions ([3]; 2 wt % solutions): failed to undergo hydrogelation

Molecule: VKVKVKVK V^DPPT KVKCKVKV-NH2 (not fully specified (C-terminus)) [MAX6]
- ability to fold and self-assemble [3]: folds and self-assembles

Molecule: VKVKVKVK V^DPPT KVKEKVKV-NH2 [MAX5]
- conformation by CD under folding conditions [4]: random coil

Molecule: VKVKVKVK V^DPPT KVKTKVKV-NH2 (not fully specified (C-terminus)) [MAX2]
- temperature above which peptide folds/self-assembles ([2]; pH 9 (10 mM NaCl)): greater than 45 °C
- temperature below which peptide is unfolded ([2]; pH 9 (10 mM NaCl)): below 40 °C
- reversibility of thermally induced hydrogelation [3]: not reversible
